Test results as given in patent US20020192214A1.

Target: human eosinophil eotaxin receptor CC CKR3, stably expressed in AML14.3D10 cells (human) (UniProt P51677)
Experiment: cell-based or functional assay

human eosinophil eotaxin receptor CC CKR3, stably expressed in AML14.3D10 cells (human), sequence (P51677 whole entry): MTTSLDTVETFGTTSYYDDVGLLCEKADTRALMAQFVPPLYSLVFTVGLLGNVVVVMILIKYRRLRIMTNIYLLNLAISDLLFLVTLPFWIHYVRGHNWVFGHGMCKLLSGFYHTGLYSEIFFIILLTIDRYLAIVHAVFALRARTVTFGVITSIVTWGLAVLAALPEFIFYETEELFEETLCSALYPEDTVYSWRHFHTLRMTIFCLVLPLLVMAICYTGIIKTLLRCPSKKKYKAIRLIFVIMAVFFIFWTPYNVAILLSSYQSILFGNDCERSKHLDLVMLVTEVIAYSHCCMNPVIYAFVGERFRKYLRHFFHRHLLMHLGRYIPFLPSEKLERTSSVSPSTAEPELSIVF

- Ca^2+-flux (intracellular Ca^2+ levels): > 1 µM
Substance: IL-8 (from UniProt P10145 28-99) (ligand)
